Source: the supplement of paper PMC9233669
This sample holds only a part of the variants without activity.

Columns and labels:
[1] = system: biotinyl-Phe-oxazolone; assay: self-aminoacylation, catalytic enhancement (BFO) (fold over background); higher = more active; k-Seq, kA / k0A0; sequences stand for … in GGGAAUGGAUCCACAUCUACGAAUUC…UUCACUGCAGACUUGACGAAGCUG
Procedure, shortened: (§1)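 Each biotinyl-aminoacyl-oxazolone, at 2–1250 μM, was incubated with mutagenized RNA pools (0.43 μM) carrying a 21-nt variable region. The 50 μL reactions contained HEPES/NaCl/KCl/MgCl2/CaCl2 buffer with 5% acetonitrile at pH 6.9–7.0 and ran for 90 minutes at room temperature. After streptavidin capture, RNA was measured by qPCR in triplicate and by Illumina sequencing, and catalytic enhancement was calculated as median kA over the uncatalyzed rate from a pseudo-first-order fit of per-sequence fraction reacted.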

[2] = system: biotinyl-Val-oxazolone; assay: self-aminoacylation, catalytic enhancement (BVO) (fold over background); higher = more active; k-Seq, kA / k0A0; sequences stand for … in GGGAAUGGAUCCACAUCUACGAAUUC…UUCACUGCAGACUUGACGAAGCUG
Procedure, shortened: as §1

[3] = system: biotinyl-Leu-oxazolone; assay: self-aminoacylation, catalytic enhancement (BLO) (fold over background); higher = more active; k-Seq, kA / k0A0; sequences stand for … in GGGAAUGGAUCCACAUCUACGAAUUC…UUCACUGCAGACUUGACGAAGCUG
Procedure, shortened: as §1

[4] = system: biotinyl-Met-oxazolone; assay: self-aminoacylation, catalytic enhancement (BMO) (fold over background); higher = more active; k-Seq, kA / k0A0; sequences stand for … in GGGAAUGGAUCCACAUCUACGAAUUC…UUCACUGCAGACUUGACGAAGCUG
Procedure, shortened: as §1

[5] = system: biotinyl-Ile-oxazolone; assay: self-aminoacylation, catalytic enhancement (BIO) (fold over background); higher = more active; k-Seq, kA / k0A0; sequences stand for … in GGGAAUGGAUCCACAUCUACGAAUUC…UUCACUGCAGACUUGACGAAGCUG
Procedure, shortened: as §1

[6] = system: biotinyl-Trp-oxazolone; assay: self-aminoacylation, catalytic enhancement (BWO) (fold over background); higher = more active; k-Seq, kA / k0A0; sequences stand for … in GGGAAUGGAUCCACAUCUACGAAUUC…UUCACUGCAGACUUGACGAAGCUG
Procedure, shortened: as §1

Row | Sequence | self-aminoacylation [1] | self-aminoacylation [2] | self-aminoacylation [3] | self-aminoacylation [4] | self-aminoacylation [5] | self-aminoacylation [6]
1 | AUUAAUCUAGGUCAUCGGGUG [Fam2.2 aminoacylation ribozyme variant] | 15 | 2.72 | 4.65 | 3.43 | 2.73 | 4.05
2 | AUUACACUAGUCAUCGAGUGA [Fam2.1 aminoacylation ribozyme variant] | 16.9 | 2.51 | 5.19 | 4.79 | 3.05 | 6.55
3 | AUUACACUGCUCAUCGAGUGA [Fam2.1 aminoacylation ribozyme variant] | 1.51 | 1.61 | 1.72 | 1.8 | 1.55 | 2.31
4 | AUUACACUGGGCAUCGAGUGA [Fam2.1 aminoacylation ribozyme variant] | 27.1 | 3.44 | 6.5 | 5.92 | 3.53 | 7.85
5 | AUUACACUGGUCAACGAGUGA [Fam2.1 aminoacylation ribozyme variant] | 22.6 | 2.79 | 5.07 | 5.3 | 2.78 | 7.54
6 | AUUACACUGGUCAUCGAAUGA [Fam2.1 aminoacylation ribozyme variant] | 0.652 | 1.25 | 0.978 | 0.931 | 1.12 | 1.15
7 | AUUACACUGGUCUUCGAGUGA [Fam2.1 aminoacylation ribozyme variant] | 18.8 | 2.87 | 4.42 | 3.75 | 2.75 | 6.04
8 | AUUACACUGGUGAUCGAGUGA [Fam2.1 aminoacylation ribozyme variant] | 20.9 | 2.42 | 4.21 | 4.88 | 2.33 | 5.92
9 | AUUACACUGUUCAUCGAGUGA [Fam2.1 aminoacylation ribozyme variant] | 3.06 | 2.17 | 2.97 | 3.76 | 2.01 | 4.78
10 | AUUACCAUGAUCAUCGAGUGA [Fam2.1 aminoacylation ribozyme variant] | 56.1 | 5.53 | 11.6 | 11.1 | 5.54 | 14.6
11 | AUUACCAUGGACAUCGAGUGA [Fam2.1 aminoacylation ribozyme variant] | 24.1 | 3.14 | 6.81 | 6.51 | 2.91 | 8.17
12 | AUUACCAUGGCCAUCGAGUGA [Fam2.1 aminoacylation ribozyme variant] | 2.77 | 2.27 | 3.1 | 2.67 | 1.83 | 3.98
13 | AUUACCAUGGUAAUCGAGUGA [Fam2.1 aminoacylation ribozyme variant] | 50.3 | 3.89 | 8.44 | 8.72 | 3.78 | 10.7
14 | AUUACCAUGGUCAACGAGUGA [Fam2.1 aminoacylation ribozyme variant] | 32.6 | 4.12 | 7.89 | 7.33 | 4.28 | 10
15 | AUUACCAUGGUCAUCGAGUGU [Fam2.1 aminoacylation ribozyme variant] | 4.69 | 2.78 | 4.6 | 4.53 | 2.55 | 6.03
16 | AUUACCAUGUUCAUCGAGUGA [Fam2.1 aminoacylation ribozyme variant] | 36.4 | 3.79 | 7.2 | 7.52 | 4.04 | 9.17
17 | AUUACCCACGUCAUCGAGUGA [Fam2.1 aminoacylation ribozyme variant] | 15.6 | 2.9 | 4.38 | 4.44 | 2.46 | 4.53
18 | AUUACCCAGGACAUCGAGUGA [Fam2.1 aminoacylation ribozyme variant] | 56.4 | 3.9 | 7.26 | 8.33 | 3.56 | 8.66
19 | AUUACCCAGGGCAUCGAGUGA [Fam2.1 aminoacylation ribozyme variant] | 21.4 | 3.57 | 6.33 | 6.06 | 3.27 | 6.92
20 | AUUACCCAGGUCAACGAGUGA [Fam2.1 aminoacylation ribozyme variant] | 24.9 | 3.76 | 6.2 | 7.03 | 3.57 | 7.71
21 | AUUACCCAGGUCAUAGAGUGA [Fam2.1 aminoacylation ribozyme variant] | 37.5 | 5.27 | 9.64 | 10.7 | 4.85 | 11.3
22 | AUUACCCAGGUCAUCGAGUAA [Fam2.1 aminoacylation ribozyme variant] | 1.09 | 1.06 | 1.16 | 1.54 | 1.49 | 1.57
23 | AUUACCCAGGUCAUCGAGUGA [Fam2.1 aminoacylation ribozyme variant] | 22.8 | 3.55 | 6.08 | 5.79 | 3.21 | 6.89
24 | AUUACCCCGCUCAUCGAGUGA [Fam2.1 aminoacylation ribozyme variant] | 6.93 | 1.73 | 1.99 | 1.89 | 1.16 | 1.17
25 | AUUACCCCGGACAUCGAGUGA [Fam2.1 aminoacylation ribozyme variant] | 19.6 | 2.48 | 4.04 | 4.74 | 2.38 | 5.47
26 | AUUACCCCGGCCAUCGAGUGA [Fam2.1 aminoacylation ribozyme variant] | 20.7 | 4.34 | 5.86 | 4.03 | 2.68 | 5.24
